According to article PMC5834530:

Tests used:
[1] = molecular target: MGG_01005 (Magnaporthe oryzae dynein light chain Tctex-type 1, dynlt1/3), wild type, recombinant (Magnaporthe oryzae) (UniProt G4NCW2); experiment: AUC
[2] = molecular target: MGG_01005 (Magnaporthe oryzae dynein light chain Tctex-type 1, dynlt1/3), wild type, recombinant (Magnaporthe oryzae) (UniProt G4NCW2); experiment: SEC; gel filtration chromatography of MGG_01005 (Supplementary Figure S3)
[3] = molecular target: MGG_01005 (Magnaporthe oryzae dynein light chain Tctex-type 1, dynlt1/3), wild type, recombinant (Magnaporthe oryzae) (UniProt G4NCW2); experiment: ITC
[4] = molecular target: MGG_01005 (Magnaporthe oryzae dynein light chain Tctex-type 1, dynlt1/3), wild type, recombinant (Magnaporthe oryzae) (UniProt G4NCW2); experiment: ITC; remark: listed apart in the source

Row | Substance | stoichiometry N [1] | stoichiometry N [2] | Kd [3] | stoichiometry N [3] | stoichiometry N [4] | dH [3]
1 | MGG_01005 (Magnaporthe oryzae dynein light chain Tctex-type 1, dynlt1/3), wild type, recombinant (from UniProt G4NCW2 1-153) (natural protein) | 2 | 2 |  |  |  | 
2 | MoDyn1I2^117–150 peptide |  |  | 5.39 µM | 0.55 | 0.4 to 0.7 | 
3 | MoDyn1I2^122–141 peptide |  |  | 15.2 µM | 1.13 |  | -3.28 kcal/mol
